Experimental data: PMC2500141 (The Journal of Cell Biology, 2008)

Molecular target: Drp1-6His phosphorylated at Ser600 by CaMKIα (UniProt O00429-4 1-699, phosphoserine at 600 (phosphorylated in vitro by CaMKIα))
Assay: pull-down

binding result: binds
B1: GST-hFis1 (hFis1-ΔC, without 30 amino acids at the C terminus) (domain or fragment, human, UniProt Q9Y3D6 1-122, looked up)
chain: MEAVLNELVSVEDLLKFEKKFQSEKAAGSVSKSTQFEYAWCLVRSKYNDDIRKGIVLLEELLPKGSKEEQRDYVFYLAVGNYRLKEYEKALKYVRGLLQTEPQNNQAKELERLIDKAMKKDG
